Data reported in the Human Domainome abundance scans (Beltran et al. 2025).

B1: POU domain, class 2, transcription factor 1, residues 285 to 354; numbered along this chain, P14859 (parent)
chain: LEELEQFAKTFKQRRIKLGFTQGDVGLAMGKLYGNDFSQTTISRFEALNLSFKNMCKLKPLLEKWLNDAE

Variants of: B1
Experiment: abundance fitness (aPCA) (normalised: wild type 0, dead -1); higher = more abundant; growth selection in yeast, the domain comes from the species named
Settings: Homo sapiens

Abundance fitness, by site and new letter:
N54: V 0.006; Y -0.01
M55: C -0.12; D -0.381; E -0.488; F -0.107; G -0.068; H -0.247; I -0.086; K -0.51; L -0.013; P -0.991; Q -0.034; R -0.48; S -0.1; V -0.167; W -0.271; Y -0.153
C56: A -0.004; F 0.027; G -0.047; H -0.085; I -0.014; K -0.201; L -0.016; M 0.034; P -0.681; Q 0.063; S 0.032; T 0.023; V -0.01; W -0.005; Y 0.042
K57: A -0.031; C 0.005; D 0.04; E -0.004; F -0.027; G -0.082; H -0.069; I -0.058; L -0.005; M -0.063; P -0.451; Q -0.018; R -0.047; S -0.006; V -0.024; W -0.042; Y 0.031
L58: A -0.062; C -0.019; D -0.474; E -0.526; F -0.026; G -0.632; H -0.046; I -0.027; K -0.202; M 0.014; N -0.396; P -0.802; Q -0.199; S -0.178; T -0.07; V 0.005; W 0.002; Y -0.115
K59: A -0.028; C -0.134; D -0.672; F -0.138; G -0.175; H -0.014; I -0.13; L -0.06; M -0.002; N -0.311; P -0.72; Q -0.037; R -0.005; S -0.092; T -0.033; V -0.056; W -0.026; Y -0.072
P60: A -0.066; C -0.051; D -0.042; F -0.114; H -0.094; I -0.059; K -0.072; L -0.074; M -0.065; N -0.094; Q -0.094; R -0.107; S -0.029; T -0.08; V -0.141; Y -0.217
L61: C -0.188; D -0.075; F -0.005; G -0.09; H 0.016; I -0.097; K -0.031; M -0.053; N -0.017; P -0.006; Q -0.053; R 0.008; S -0.078; T -0.026; V -0.008; W -0.038
L62: A -0.149; C -0.18; D -0.354; E -0.914; F -0.017; G -0.545; I -0.091; K -0.937; M -0.006; P -0.699; Q -0.913; S -0.567; T -0.406; V -0.102; W -1.08; Y -0.069
E63: A 0.07; D -0.45; G -0.023; I -0.22; K -0.126; L 0.024; M -0.031; N -0.199; P -0.571; Q -0.07; R -0.199; S -0.082; T -0.1; V -0.095; W -0.075
K64: A -0.036; C -0.143; D -0.037; E -0.02; G -0.026; H -0.1; N -0.022; P -0.387; Q -0.011; R -0.019; S 0.011; T -0.04; W -0.113; Y -0.225
W65: A -0.432; C -0.35; D -0.968; E -0.825
